Measured values as given in the Immune Epitope Database (IEDB).

Columns and labels:
[1] = target: HLA-A*23:01; experiment: IEDB peptide-MHC binding, purified MHC/competitive/fluorescence; filed as Kd, often an IC50 or EC50 that approximates it; ≥ and ≤ were set here for values at or beyond the usual limits of such assays; details: source organism: Burkholderia pseudomallei S13
[2] = target: HLA-B*15:42; experiment: as above; details: source organism: Burkholderia pseudomallei S13
[3] = target: HLA-B*45:06; experiment: as above; details: source organism: Burkholderia pseudomallei S13
[4] = target: HLA-B*83:01; experiment: as above; details: source organism: Burkholderia pseudomallei S13
[5] = target: HLA-C*04:01; experiment: as above; details: source organism: Burkholderia pseudomallei S13
[6] = target: HLA-A*01:01; experiment: IEDB peptide-MHC binding, purified MHC/competitive/radioactivity; ≥ and ≤ were set here for values at or beyond the usual limits of such assays; details: source organism: Homo sapiens
[7] = target: HLA-A*02:01; experiment: IEDB peptide-MHC binding, purified MHC/direct/fluorescence; filed as Kd, often an IC50 or EC50 that approximates it; ≥ and ≤ were set here for values at or beyond the usual limits of such assays
[8] = target: HLA-A*02:03; experiment: as above; details: source organism: Burkholderia mallei ATCC 23344
[9] = target: HLA-A*02:11; experiment: as above
[10] = target: HLA-A*02:12; experiment: as above
[11] = target: HLA-A*02:16; experiment: as above
[12] = target: HLA-A*02:19; experiment: as above
[13] = target: HLA-A*03:01; experiment: as above
[14] = target: HLA-A*24:03; experiment: as above; details: source organism: Burkholderia mallei ATCC 23344
[15] = target: HLA-A*26:01; experiment: as above
[16] = target: HLA-A*68:02; experiment: as above
[17] = target: HLA-A*69:01; experiment: as above
[18] = target: HLA-B*15:01; experiment: as above
[19] = target: HLA-B*18:01; experiment: as above
[20] = target: HLA-B*27:03; experiment: as above
[21] = target: HLA-B*39:01; experiment: as above
[22] = target: HLA-B*46:01; experiment: as above
[23] = target: HLA-B*51:01; experiment: as above
[24] = target: HLA-B*73:01; experiment: IEDB peptide-MHC binding, purified MHC/competitive/fluorescence; filed as Kd, often an IC50 or EC50 that approximates it; ≥ and ≤ were set here for values at or beyond the usual limits of such assays; details: source organism: Escherichia coli O157:H7 str. Sakai
[25] = target: HLA-A*68:01; experiment: IEDB peptide-MHC binding, purified MHC/competitive/radioactivity; ≥ and ≤ were set here for values at or beyond the usual limits of such assays; details: source organism: Hepacivirus hominis
[26] = target: HLA-B*57:01; experiment: IEDB peptide-MHC binding, purified MHC/direct/fluorescence; filed as Kd, often an IC50 or EC50 that approximates it; ≥ and ≤ were set here for values at or beyond the usual limits of such assays
[27] = target: HLA-A*01:01; experiment: as above; details: source organism: Brucella abortus 2308
[28] = target: HLA-B*07:02; experiment: as above; details: source organism: Brucella abortus 2308
[29] = target: HLA-B*08:01; experiment: as above; details: source organism: Brucella suis 1330
[30] = target: HLA-B*15:17; experiment: as above; details: source organism: Brucella abortus 2308
[31] = target: HLA-B*27:05; experiment: as above; details: source organism: Brucella abortus 2308
[32] = target: HLA-B*48:01; experiment: as above; details: source organism: Brucella abortus 2308
[33] = target: HLA-B*58:01; experiment: as above; details: source organism: Brucella abortus 2308
[34] = target: HLA-B*73:01; experiment: as above; details: source organism: Brucella suis 1330
[35] = target: HLA-A*02:03; experiment: IEDB peptide-MHC binding, purified MHC/competitive/fluorescence; filed as Kd, often an IC50 or EC50 that approximates it; ≥ and ≤ were set here for values at or beyond the usual limits of such assays
[36] = target: HLA-A*11:01; experiment: as above
[37] = target: HLA-A*26:03; experiment: as above; details: source organism: Brucella abortus S19
[38] = target: HLA-A*31:01; experiment: as above; details: source organism: Brucella abortus S19
[39] = target: HLA-B*48:01; experiment: as above; details: source organism: Mycobacterium tuberculosis variant bovis BCG str. Pasteur 1173P2
[40] = target: HLA-A*01:01; experiment: as above; details: source organism: Human immunodeficiency virus 1
[41] = target: HLA-A*02:06; experiment: as above; details: source organism: Human immunodeficiency virus 1
[42] = target: HLA-A*26:02; experiment: as above; details: source organism: Human immunodeficiency virus 1
[43] = target: HLA-A*30:01; experiment: as above; details: source organism: Human immunodeficiency virus 1
[44] = target: HLA-B*15:01; experiment: as above; details: source organism: Human immunodeficiency virus 1
[45] = target: HLA-B*18:01; experiment: as above; details: source organism: Human immunodeficiency virus 1
[46] = target: HLA-B*35:01; experiment: as above; details: source organism: Human immunodeficiency virus 1
[47] = target: HLA-B*57:01; experiment: as above; details: source organism: Human immunodeficiency virus 1
[48] = target: HLA-A*24:02; experiment: IEDB peptide-MHC binding, cellular MHC/competitive/fluorescence; ≥ and ≤ were set here for values at or beyond the usual limits of such assays; details: source organism: Human herpesvirus 5 strain AD169
[49] = source organism: Burkholderia mallei ATCC 23344
[50] = source organism: Mycobacterium tuberculosis str. Haarlem
[51] = source organism: Brucella abortus 2308
[52] = source organism: Brucella abortus S19
[53] = source organism: Human immunodeficiency virus 1

In the case of GFYLSGHLF, the Kd [1] is reported as at most 0.0001 µM, the Kd [2] is reported as at least 5 µM and the Kd [3] is reported as at least 5 µM. The Kd [4] was at least 5 µM and the Kd [5] was at least 5 µM.

With IVDSLTEMY the IC50 [6] was 0.007 µM.

LARFPCNVI was tested, and the Kd [7, 49] was at least 20 µM, the Kd [8] was at least 20 µM and the Kd [9, 49] was at least 20 µM. The Kd [10, 49] was at least 20 µM, the Kd [11, 49] was at least 20 µM and the Kd [12, 49] was at least 20 µM. For the same sequence, the Kd [13, 49] was at least 20 µM, the Kd [14] was at least 20 µM and the Kd [15, 49] was at least 20 µM. The Kd [16, 49] was at least 20 µM, the Kd [17, 49] was at least 20 µM and the Kd [18, 49] was at least 20 µM. It also gave a Kd [19, 49] of at least 20 µM, a Kd [20, 49] of at least 20 µM and a Kd [21, 49] of at least 20 µM. The Kd [22, 49] was at least 20 µM and the Kd [23, 49] was 0.606 µM.

Sequence NEWYVQPQA has a Kd [24] of 0.0673 µM.

Work on QLFTFSPRR yielded an IC50 [25] of 0.0026 µM.

RLGWRTLDF gave a Kd [7, 50] of at least 20 µM, a Kd [9, 50] of at least 20 µM and a Kd [10, 50] of at least 20 µM. For the same sequence, the Kd [11, 50] was at least 20 µM, the Kd [12, 50] was at least 20 µM and the Kd [13, 50] was at least 20 µM. For the same sequence, the Kd [15, 50] was at least 20 µM, the Kd [19, 50] was at least 20 µM and the Kd [20, 50] was at least 20 µM. It also gave a Kd [21, 50] of at least 20 µM, a Kd [22, 50] of at least 20 µM and a Kd [23, 50] of at least 20 µM. For the same sequence, the Kd [26, 50] was at least 20 µM.

With RMIESRMSK the Kd [27] was at least 20 µM, the Kd [7, 51] was at least 20 µM and the Kd [13, 51] was 0.131 µM. For the same sequence, the Kd [16, 51] was at least 20 µM, the Kd [17, 51] was at least 20 µM and the Kd [28] was at least 20 µM. For the same sequence, the Kd [29] was at least 20 µM, the Kd [18, 51] was 0.341 µM and the Kd [30] was at least 20 µM. It also gave a Kd [19, 51] of at least 20 µM, a Kd [31] of 0.0525 µM and a Kd ([21]; source organism: Brucella suis 1330) of at least 20 µM. For the same sequence, the Kd [32] was at least 20 µM, the Kd [26, 51] was at least 20 µM and the Kd [33] was at least 20 µM. For the same sequence, the Kd [34] was at least 20 µM, the Kd [35, 52] was at least 20 µM and the Kd [36, 52] was 0.0055 µM. It also gave a Kd [37] of at least 20 µM and a Kd [38] of 0.0607 µM.

With RMVIGGVAL the Kd [39] was 0.0681 µM.

In the case of RSLFNTVAVLY, the Kd [40] is reported as at least 20 µM, the Kd [35, 53] is reported as 0.644 µM and the Kd [41] is reported as 0.952 µM. The Kd [36, 53] was 1.35 µM, the Kd [42] was 3.07 µM and the Kd [43] was 2.96 µM. The Kd [44] was 0.907 µM, the Kd [45] was 0.36 µM and the Kd [46] was 0.387 µM. For the same sequence, the Kd [47] was 0.676 µM.

In the case of VYYTSAFVF, the IC50 [48] is reported as 35 µM.
